The target in assay [1] is T1, human CD3 on the cell surface (Jurkat cells, expanded human T cells, Jurkat-Lucia NFAT cells, human PBMC) (human, UniProt P07766 23-207; P04234 22-171; P09693 23-182).
T1 construct: whole, on cells; Endogenous CD3 within the TCR-CD3 complex on cells (also zeta chains and TCR); the cell type is named under assay
Briefly: FACS, Jurkat cells. The method, then: (§1) The binding of the chimeric antibodies to CD3 on the cell surface was analyzed by detecting the binding of the antibodies to Jurkat cells and human T cells. Suspension cells Jurkat cells were scale-up cultured in T-75 cell culture flasks to the logarithmic growth phase, the supernatant of the medium was discarded by centrifugation, and the cell pellet was washed 2 times with PBS for later use. The expanded human T cells were washed 2 times with PBS for later use. After counting the cells in the previous step, the cell pellet was resuspended with [PBS+2% (w/w) BSA] blocking solution to 4×10⁶ cells/ml, and added to a 96-well FACS reaction plate at 50 μl/well, and then the chimeric antibody to be tested was added at 50 μl/well, and incubated at 4° C. for 1 h. The cells were centrifuged and washed 3 times with a PBS buffer. […] The cells were centrifuged and washed 5 times with PBS, and FACS (FACS Canto™, purchased from BD Company) was used for detection and result analysis. Data analysis was performed by software (CellQuest) to obtain the mean fluorescence […] (MFI) of the cells. And then software (GraphPad Prism8) was used for analysis, data fitting, and EC50 value calculation. The same method was used to simultaneously detect the binding of the chimeric antibodies to endogenous CD3 negative cells MOLT4 cells.
On the technique in general: In flow cytometry, cells or beads pass a laser one at a time.

In assay [2] the target is T1, human CD3 on the cell surface (Jurkat …). The assay can be described thus: cell-based or functional assay.
Assay [3] has the same target. Briefly: FACS, expanded human T cells. As for the experimental part: as §1
The target in assay [4] is T2, cynomolgus monkey CD3 on the surface of expanded monkey T cells (cynomolgus monkey, UniProt Q95LI5 22-198; Q95LI8 22-171; Q95LI7 23-181).
T2 construct: whole, on cells; Endogenous CD3 within the TCR-CD3 complex on T cells expanded from cynomolgus monkey PBMC
T2 sequence (Q95LI5 22-198, chain 1 of 3): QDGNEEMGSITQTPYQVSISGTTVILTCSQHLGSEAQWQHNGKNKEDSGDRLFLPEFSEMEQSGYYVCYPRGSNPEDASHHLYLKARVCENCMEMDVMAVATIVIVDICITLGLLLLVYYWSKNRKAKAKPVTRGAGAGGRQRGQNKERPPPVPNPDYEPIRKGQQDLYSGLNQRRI
T2 sequence (Q95LI8 22-171, chain 2 of 3): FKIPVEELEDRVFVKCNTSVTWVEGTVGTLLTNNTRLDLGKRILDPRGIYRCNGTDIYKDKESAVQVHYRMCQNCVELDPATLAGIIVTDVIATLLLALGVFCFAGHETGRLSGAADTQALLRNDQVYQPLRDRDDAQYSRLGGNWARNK
T2 sequence (Q95LI7 23-181, chain 3 of 3): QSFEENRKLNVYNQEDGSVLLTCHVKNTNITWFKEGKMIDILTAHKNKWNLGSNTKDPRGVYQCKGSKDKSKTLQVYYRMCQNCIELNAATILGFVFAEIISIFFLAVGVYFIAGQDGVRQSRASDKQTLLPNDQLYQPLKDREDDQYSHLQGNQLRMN
The assay can be described thus: FACS, expanded monkey T cells. The method, then:
as §1
FACS detection and data analysis were performed on the cryopreserved monkey T cells of Example 2.4 according to the method in Example 5.1.

Assay [5] has as its target T3, human CD3ε/δ-His (human, UniProt P07766 23-126; P04234 22-105).
T3 construct: Bought recombinant heterodimer with His tag; also called human CD3ε/δ protein
The assay can be described thus: ELISA, coated antigen. As for the experimental part: (§2) To detect the binding activity of the humanized antibodies to CD3 protein, CD3 protein was diluted with PBS to the final concentration of […], then added to a 96-well ELISA plate at 50 μL/well, and the plate was sealed with a plastic film, and incubated overnight at 4° C. On the next day, the plate was washed 2 times with PBS, and a blocking solution [PBS+2% (v/v) BSA] was added for blocking at room temperature for 2 h. The blocking solution was poured off, and the antibody (initial concentration of 100 nM, and gradient dilution at 1:10) or a negative control antibody was added at 50 µl/well. After incubation at 37° C. for 2 h, the plate was washed 3 times with PBS. […] TMB substrate was added at 50 μl/well, and incubated at room temperature for 10 min, and then a stop solution (1.0 N HCl) was added at 50 μl/well. The OD450 nm values were read by an ELISA microplate reader (Multimode Plate Reader, EnSight, purchased from Perkin Elmer).

Assay [6] has as its target T4, recombinant human CD3ε-ECD His protein (human, UniProt P07766 23-126).
T4 construct: extracellular domain; also called human CD3ε-His; CD3ε antigen protein; not shown: His tag
Briefly: ELISA, coated antigen. As for the experimental part:
as §2

Assay [7] addresses T5, monkey CD3ε/δ-His (monkey, UniProt Q95LI5 22-117; Q95LI8 22-105).
T5 construct: Bought recombinant heterodimer with His tag
Briefly: ELISA, coated antigen. As for the experimental part: as §2
(§3) To detect the binding activity of the humanized antibodies to monkey CD3 protein, CD3 protein was diluted with PBS to the final concentration of […], and then added to a 96-well ELISA plate at 50 μl/well.
(In general: An ELISA detects its analyte on a solid surface through an enzyme-linked reagent.)

Assay [8] has as its target T6, monkey CD3ε protein (monkey, UniProt Q95LI5 22-117, limits assumed).
T6 sequence (looked up): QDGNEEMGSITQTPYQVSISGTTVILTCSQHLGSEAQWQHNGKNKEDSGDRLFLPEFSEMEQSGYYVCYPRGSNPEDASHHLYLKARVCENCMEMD
Briefly: ELISA, coated antigen. As for the experimental part:
as §2, §3

In assay [9] the target is T1, human CD3 on the cell surface (Jurkat …). The assay can be described thus: FACS, expanded human T cells. As for the experimental part:
as §1
The expanded human PBMC cells were collected, and FACS detection and data analysis were performed according to the method in Example 5.1.
The source holds these as a separate data set.

Assay [10] has as its target T2, cynomolgus monkey CD3 on the surface of …. Briefly: FACS, expanded monkey T cells. As for the experimental part:
as §1
The expanded monkey T cells were collected, and FACS detection and data analysis were performed according to the method in Example 5.1.
The source holds these as a separate data set.

In assay [11] the target is T3, human CD3ε/δ-His. Briefly: SPR, antibody captured on Protein A chip. The method, then: (§4) Running buffer was HBS-EP+(10 mM HEPES, 150 mM NaCl, 3 mM EDTA, 0.05% surfactant P20) (GE Healthcare; BR-1006-69). The flow-through cell was set to 25° C. The sample block was set to 16° C. Both were pretreated with the running buffer. In each cycle, an antibody to be detected was first captured with a Protein A chip, and then a single concentration of CD3ε antigen protein was injected. The binding and dissociation processes of the antibody and the antigen protein were recorded, and finally Glycine pH 1.5 (GE Healthcare; BR-1003-54) was used to complete chip regeneration. The binding was measured by injecting different concentrations of recombinant human CD3ε proteins in a solution for 240 s with a flow rate of 30 μL/min. The concentration started from 200 nM (see the detailed results for the actual concentration in the test) and was diluted at 1:1, making a total of 5 concentrations. The dissociation phase was monitored for up to 600 s and was triggered by switching from sample solution to running buffer. The surface was regenerated by washing with a 10 mM glycine solution (pH 1.5) for 30 s at a flow rate of 30 μL/min. Bulk refractive index difference was corrected by subtracting the response obtained from the goat anti-human Fc surface, and the blank injection was subtracted at the same time (=double reference). For calculation of apparent KD value and other kinetic parameters, Langmuir 1:1 model was used.

For assay [12], the target named is T4, recombinant human CD3ε-ECD His protein. The assay can be described thus: SPR, antibody captured on Protein A chip. As for the experimental part:
as §4
Background: SPR reads the build-up and loss of mass on a sensor chip optically.

Where two headings read alike, the source gives them in different places.

Results on 5 molecules are retold here after US20250136687A1 (SHANDONG SIMCERE BIOPHARMACEUTICAL, published 2025).

T5 sequence (Q95LI8 22-105, stated change not applied, form in doubt, chain 2 of 2, one chain of several): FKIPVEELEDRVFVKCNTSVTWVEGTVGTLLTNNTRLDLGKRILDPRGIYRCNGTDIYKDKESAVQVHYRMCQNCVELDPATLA
T3 sequence (P07766 23-126, stated change not applied, form in doubt, chain 1 of 2): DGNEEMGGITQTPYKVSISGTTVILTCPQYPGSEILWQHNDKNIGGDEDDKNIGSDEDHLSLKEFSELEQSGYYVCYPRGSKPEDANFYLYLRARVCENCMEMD
T3 sequence (P04234 22-105, stated change not applied, form in doubt, chain 2 of 2): as the sequence (Q95LI8 22-105, stated change not applied, form in doubt, chain 2 of 2, one chain of several) above, with V5I, K15N, V20I, T32S, N33D, N34I, A64T, N74S, L83V counted along it
T4 sequence (P07766 23-126): as the sequence (P07766 23-126, stated change not applied, form in doubt, chain 1 of 2) above
T1 sequence (P07766 23-207, chain 1 of 3): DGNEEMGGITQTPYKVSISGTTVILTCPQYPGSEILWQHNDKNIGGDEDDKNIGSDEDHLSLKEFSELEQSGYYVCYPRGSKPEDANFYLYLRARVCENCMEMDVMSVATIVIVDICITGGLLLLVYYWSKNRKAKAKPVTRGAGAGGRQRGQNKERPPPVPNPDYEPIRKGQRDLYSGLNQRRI
T1 sequence (P04234 22-171, chain 2 of 3): as the sequence (Q95LI8 22-171, chain 2 of 3) above, with V5I, K15N, V20I, T32S, N33D, N34I, A64T, N74S, L83V, R141H counted along it
T1 sequence (P09693 23-182, chain 3 of 3): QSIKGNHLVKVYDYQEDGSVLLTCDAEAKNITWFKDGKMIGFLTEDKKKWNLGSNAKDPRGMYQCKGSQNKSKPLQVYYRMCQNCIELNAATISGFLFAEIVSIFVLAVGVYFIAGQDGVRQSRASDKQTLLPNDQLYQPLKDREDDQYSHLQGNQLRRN

B1: 6-35.22 human-murine chimeric antibody (antibody, human IgG1, kappa, V domains shown)
VH: EVKLVESGGGLVQPGASLSLSCAASGFTFTDYYMSWVRQPPGKALEWLAMSRNKAKGHTIEYSSSVKGRFTISRDNSQSILYLQMNALRAEDSATYYCARDTYESYDGYFDVWGAGTTVIVSS
VL: DIVMSQSPSSLAVSAGETVTMSCKSSQSLFNSRSRKNYLAWYQQKPGQTPKLLIYWASIRESGVPDRFTGSGSGTDFTLTISSVQAEDLAVYYCKQSYYLYTFGSGTKLEIKR
notes: Human IgG1 chimera
Regarding B1, in assay [1], the EC50 (commonly the concentration giving half of the maximal effect) was 8.3 nM and the MFI_Max amounted to 26700 MFI. Besides, in assay [2], the “EC50 (nM), luciferase reporter, Jurkat-Lucia NFAT cells” value was found to be 0.82 nM and the “Maximum response value (RLU)” value worked out at 27000 RLU. In addition, in assay [3], the EC50 is 3.62 nM and the MFI_Max amounted to 8900 MFI. In assay [4], this molecule came in with an EC50 of 4.18 nM and an MFI_Max of 18200 MFI.

B2: 8-18.1-H1-L2 humanized antibody (antibody, human IgG1, kappa, V domains shown)
VH: EVQLVQSGAEVKKPGASVKVSCKASGYTFTMNTMHWVRQAPGQRLEWMGYINPYSGYTKYNQIFKDRVTITADKSASTAYMELSSLRSEDTAVYYCLRGGEGVWGQGTTVTVSS
VL: DVVMTQSPLSLPVTLGQPASISCKSSQSLLDSDGKTYLNWLQQRPGQSPRRLIYLVSELGSGVPDRFSGSGSGTDFTLKISRVEAEDVGVYYCWQGTHFPRTFGGGTKVEIKR
In the case of B2, the EC50 in assay [5] came to 0.22 nM; in assay [6] it was 0.0363 nM; in [7] it was 0.0193 nM; in assay [8] it was 0.00475 nM; in [9] it was 7.05 nM; in assay [10], 2.84 nM. The max-OD450 in [5] is 3.16 OD450; in [6] it was 3.11 OD450; in assay [7], 3.16 OD450; in assay [8], 3.1 OD450. Moreover, the values for the max_MFI in [9] and in [10] were 11500 MFI and 11800 MFI, respectively. The Kd (in general, the free concentration of one partner at which half of the binding sites on the other are occupied at equilibrium, for simple one-to-one binding) was 67.4 nM in assay [11] and 0.908 nM in assay [12]. The koff (as a rule, the first-order rate constant of dissociation) in assay [11] turned out to be 0.0317 s⁻¹; in [12], 0.000249 s⁻¹. For the same molecule, the kon (as a rule, the second-order rate constant of association) in assay [11] turned out to be 469000 M⁻¹ s⁻¹; in assay [12] it was 274000 M⁻¹ s⁻¹.

B3: 6-35.22-H1-L1 humanized antibody (antibody, human IgG1, kappa, V domains shown)
VH: EVQLVESGGGVVQPGRSLRLSCAASGFTFTDYYMSWVRQAPGKGLEWVAMSRNKAKGHTIEYSSSVKGRFTISRDNSKNTLYLQMNSLRAEDTAVYYCARDTYESYDGYFDVWGQGTTVTVSS
VL: DIVMTQSPDSLAVSLGERATINCKSSQSLFNSRSRKNYLAWYQQKPGQTPKLLIYWASIRESGVPDRFSGSGSGTDFTLTISSLQAEDVAVYYCKQSYYLYTFGQGTKLEIKR
In [5], B3 came in with an EC50 of 0.53 nM and a max-OD450 of 2.93 OD450. In addition, in assay [6], the 50% effective concentration (EC50) was determined as 0.0337 nM and the max-OD450 came to 3.1 OD450. In [9], this molecule gave an EC50 of 49.7 nM and a max_MFI of 11300 MFI.

B4: 5-7.13-H1a-L2 humanized antibody (antibody, human IgG1, kappa, V domains shown)
VH: EVQLVQSGAEVKKPGASVKVSCKASGYTFTSYWVHWVRQAPGQRLEWMGNINPSDGVTNYNEKFKSRVTITVDKSASTAYMELSSLRSEDTAVYYCTRDAYGQYYFDNWGQGTTVTVSS
VL: DIVMTQTPLSLPVTPGEPASISCKSSQSLLNSRTRKNYLAWYLQKPGQSPQLLIYWASVRDSGVPDRFSGSGSGTDFTLKISRVEAEDVGVYYCIQSYYLRTFGGGTKVEIKR
With B4, the EC50 is 0.19 nM in assay [5]; 0.0206 nM in assay [6]; 0.00332 nM in assay [7]; 0.00263 nM in [8]; 1.52 nM in assay [9]; 0.92 nM in assay [10]. Also, the max-OD450 in assay [5] was found to be 3.01 OD450; in assay [6], 3.16 OD450; in [7], 3.08 OD450; in assay [8], 2.99 OD450. Also, the max_MFI came out at 35900 MFI in assay [9] and 25400 MFI in [10]. Further, the Kd in [11] amounted to 27.4 nM; in assay [12], 0.806 nM. Also, the results for the koff in assay [11] and in assay [12] were 0.00983 s⁻¹ and 0.000214 s⁻¹, respectively. Further, the kon in assay [11] is 358000 M⁻¹ s⁻¹; in assay [12], 266000 M⁻¹ s⁻¹.

B5: 7-35.6-H2-L3 humanized antibody (antibody, human IgG1, lambda, V domains shown)
VH: EVQLVESGGGLVQPGGSLKLSCAASGFTFNTYAMNWVRQASGKGLEWVGRIRSKINNYATYYGDSVKDRFTISRDDSKNTFYLQMNSLKTEDTAVYYCVIHENYGSISWFAYWGQGTLVTVSS
VL: ETVVTQEPSLTVSPGGTVTLTCRSSTGAVTTSNYANWVQQKPGQAFTGLIGGTNNRAPWTPARFSGSLLGGKAALTLSGVQPEDEAEYYCALWYSNHWVFGGGTKLTVLG
As to B5, the EC50 was found to be 0.32 nM in assay [5]; 0.0395 nM in [6]; 0.0552 nM in assay [7]; 0.00859 nM in assay [8]; 9.45 nM in assay [9]; 7.84 nM in assay [10]. Besides, the max-OD450 in assay [5] was 3.15 OD450; in assay [6] it was 3.12 OD450; in assay [7], 3.13 OD450; in assay [8], 3.01 OD450. The max_MFI amounted to 10000 MFI in [9] and 10200 MFI in assay [10]. Also, the figures for the Kd in [11] and in assay [12] were 145 nM and 1.29 nM, respectively. For the same molecule, the results for the koff in assay [11] and in [12] were 0.0335 s⁻¹ and 0.000369 s⁻¹, respectively. Besides, the kon was 231000 M⁻¹ s⁻¹ in assay [11] and 286000 M⁻¹ s⁻¹ in [12].
